Source: the supplement of paper PMC9732359
± gives the uncertainty stated by the source.

Assay: protein stability index of a GFP-peptide fusion (yeast GPS) (PSI 1-4); higher = more stable; sorted into four equal gates, so the index is relative within each strain
Method in brief: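 The protein stability index of a peptide was calculated by multiplying its read frequency in each gate by that gate's number and adding the products. The peptides were tiled 17-residue stretches of yeast proteins, fused downstream of GFP on a Cherry-expressing plasmid and carried in yeast as a pooled library. Mid-log cultures in leucine-free medium were sorted into four equal gates by GFP/Cherry ratio, and each gate's plasmids were PCR-amplified and Illumina-sequenced.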

Row | Sequence | protein stability index (doa10∆) | protein stability index (pdr5∆) | protein stability index (san1∆) | protein stability index (ubr1∆)
1 | GNSFHLMRELLKMMKLI [PRP8] | 2.78 ± 0.051 | 2.41 ± 0.046 | 2.6 ± 0.065 | 2.43 ± 0.049
2 | SNSTPNANQQFLPFNNS [SWI1] | 3.25 ± 0.072 | 3.19 ± 0.058 | 2.96 ± 0.059 | 2.94 ± 0.052
3 | ILDTSQSESRQKRQLHD [SNU114] | 3.23 ± 0.11 | 3.12 ± 0.084 | 1.72 ± 0.24 | 3.01 ± 0.048
4 | PSTSSNMDVGNPRKRKA [GAL11] | 2.65 ± 0.18 | 2.25 ± 0.12 | 2.75 ± 0.12 | 3.27 ± 0.088
5 | IKDSVREVGTKFTTVLA [ECM29] | 2.77 ± 0.084 | 2.6 ± 0.07 | 2.22 ± 0.078 | 2.42 ± 0.05
6 | IASTEKPENKTDKVSLS [SIR4] | 3.21 ± 0.069 | 3.1 ± 0.09 | 3.17 ± 0.067 | 2.89 ± 0.088
7 | SVLYPDELEDDTLNETN [RRP43] | 3 ± 0.082 | 3.08 ± 0.071 | 3.19 ± 0.08 | 3.11 ± 0.062
8 | RTQFGGGKSVGFGLVYN [RPS24A] | 2.96 ± 0.065 | 2.82 ± 0.05 | 3.27 ± 0.047 | 2.91 ± 0.055
9 | HECRLRDMTYSAPIYVD [RET1] | 2.04 ± 0.087 | 1.67 ± 0.099 | 2.01 ± 0.21 | 1.91 ± 0.061
10 | IYGVEWLIEGKLYVDAV [YDL116W/NUP84] | – | 1.2 ± 0.082 | – | –
11 | NKNLPFVWLSSEENIGS [SWI1] | 2.9 ± 0.067 | 1.84 ± 0.072 | 1.59 ± 0.063 | 1.74 ± 0.053
12 | YLNGTLIGSIRFPTKFV [RET1] | 2.04 ± 0.075 | 1.6 ± 0.053 | 1.64 ± 0.088 | 1.56 ± 0.044
13 | IVEADEKKGIVQASVTS [RET1] | 2.66 ± 0.15 | 2.6 ± 0.11 | – | 1.7 ± 0.086
14 | LFLRGDSVIVVLKTPVE [SMD2] | 2.63 ± 0.12 | 2.42 ± 0.093 | 2.78 ± 0.083 | 2.38 ± 0.14
15 | LSQSSSYLETLTALGKE [MED2] | 3.12 ± 0.097 | 3.04 ± 0.099 | 2.66 ± 0.084 | 2.44 ± 0.07
16 | RIMEKSVILSVISMFVL [YML031W/NDC1] | 1.31 ± 0.14 | 1.44 ± 0.1 | 1.17 ± 0.11 | 1.12 ± 0.049
17 | HIQGFPTLGERLDNLQD [DSN1] | 3.34 ± 0.11 | 3.39 ± 0.11 | 3.16 ± 0.046 | 3.05 ± 0.073
18 | AETLAEELINAAKGSST [RPS5] | 2.15 ± 0.083 | 2.51 ± 0.095 | 2.32 ± 0.1 | 2.09 ± 0.088
19 | SFSVCKIRCFRYISTLT [IRR1] | 1.61 ± 0.057 | 1.39 ± 0.055 | 1.49 ± 0.11 | 1.31 ± 0.052
20 | DTRITHLLRQTNAFLDS [SNF2] | 1.5 ± 0.037 | 1.47 ± 0.033 | 1.54 ± 0.064 | 1.61 ± 0.024
21 | GASGEERLMSRPFGVAL [PUP2] | 3.36 ± 0.14 | 3.24 ± 0.079 | 2.93 ± 0.073 | 3.13 ± 0.05
22 | VRYEEKRELKQLLEKAP [BRR2] | 1.86 ± 0.093 | 2.35 ± 0.084 | 1.89 ± 0.18 | 2.4 ± 0.12
23 | VMKDIYKVENVTLYWNN [ESC2] | 1.42 ± 0.088 | 1.62 ± 0.08 | 1.47 ± 0.11 | 1.73 ± 0.084
24 | LPILPIQRLRLLREKQR [YOR098C/NUP1] | 2.09 ± 0.086 | 1.55 ± 0.062 | 1.17 ± 0.25 | 2.02 ± 0.097
25 | LDLLRPVVRAPTVKYNR [RPL13A] | 1.64 ± 0.13 | 2.38 ± 0.2 | 1.7 ± 0.17 | 2.08 ± 0.11
26 | DVSRVAAVETLYQDMAA [RPL20A] | 2.66 ± 0.066 | 2.67 ± 0.08 | 2.37 ± 0.089 | 2.09 ± 0.071
